The target of the experiment is SARS-CoV-2 Wuhan (WT) spike protein RBD, His-tagged (SARS-CoV-2 Wuhan (WT), UniProt P0DTC2). Kind of experiment: SPR.

B1: imdevimab (REGN10987) (antibody, V domains shown)
VH: QVQLVESGGGVVQPGRSLRLSCAASGFTFSNYAMYWVRQAPGKGLEWVAVISYDGSNKYYADSVKGRFTISRDNSKNTLYLQMNSLRTEDTAVYYCASGSDYGDYLLVYWGQGTLVTVSS
VL: QSALTQPASVSGSPGQSITISCTGTSSDVGGYNYVSWYQQHPGKAPKLMIYDVSKRPSGVSNRFSGSKSGNTASLTISGLQSEDEADYYCNSLTSISTWVFGGGTKLTVL
By Kd is commonly meant the concentration at which binding is half-saturated. High values mean weaker binding, low ones tighter binding. As usually defined, the koff is a measure of how fast the partners let go of each other. The low end stands for a long-lived complex, the high end for a short-lived complex. What is called kon is the second-order rate constant of association. Turning to B1, the dissociation constant (Kd) was determined as 87 pM, the koff was determined as 0.00029 s⁻¹ and the kon stood at 3.4e+06 M⁻¹ s⁻¹.

B2: casirivimab (REGN10933) (antibody, V domains shown)
VH: QVQLVESGGGLVKPGGSLRLSCAASGFTFSDYYMSWIRQAPGKGLEWVSYITYSGSTIYYADSVKGRFTISRDNAKSSLYLQMNSLRAEDTAVYYCARDRGTTMVPFDYWGQGTLVTVSS
VL: DIQMTQSPSSLSASVGDRVTITCQASQDITNYLNWYQQKPGKAPKLLIYAASNLETGVPSRFSGSGSGTDFTFTISGLQPEDIATYYCQQYDNLPLTFGGGTKVEIK
Regarding B2, the equilibrium dissociation constant (Kd) was 71 pM, the dissociation rate constant (koff) was 0.00021 s⁻¹ and the association rate constant (kon) worked out at 3e+06 M⁻¹ s⁻¹.
